system: Escherichia coli TOP10; test: shrunken log2 fold change of peptide-encoding DNA abundance (4.5 h post-induction vs induction); higher = less antimicrobial activity (less host growth inhibition); conditions: time post-induction: 4.5 h; library: site-saturation at positions 5, 18, 19, 20
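Note: peptides expressed intracellularly from a pBAD plasmid library in pooled LB shake-flask culture, induced with 0.3% L-arabinose, DNA abundance read by NGS, three biological replicates, DESeq2 with apeglm shrinkage.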

| Sequence | shrunken log2 fold change |
| --- | --- |
| RRIRGRPPRLPRPRPRPDWHPRP | 0.238 |
| RRIRPRPPRLPRPRPRPATDPRP | 0.00951 |
| RRIRARPPRLPRPRPRPYSAPRP | -0.256 |
| RRIRKRPPRLPRPRPRPKLKPRP | 0.585 |
| RRIRNRPPRLPRPRPRPTTEPRP | -0.257 |
| RRIRKRPPRLPRPRPRPDGCPRP | 0.14 |
| RRIRKRPPRLPRPRPRPNVQPRP | 0.179 |
| RRIRMRPPRLPRPRPRPTCVPRP | 0.424 |
| RRIRGRPPRLPRPRPRPWRAPRP | 0.311 |
| RRIRIRPPRLPRPRPRPNMCPRP | 0.0488 |
| RRIRVRPPRLPRPRPRPCCRPRP | 0.0482 |
| RRIRLRPPRLPRPRPRPFLKPRP | -0.0488 |
| RRIRYRPPRLPRPRPRPFSIPRP | -0.000407 |
| RRIRVRPPRLPRPRPRPYVYPRP | -0.0156 |
| RRIRFRPPRLPRPRPRPQLSPRP | -0.0854 |
| RRIRSRPPRLPRPRPRPMTRPRP | 0.381 |
| RRIRCRPPRLPRPRPRPLRQPRP | 0.713 |
| RRIRIRPPRLPRPRPRPGMPPRP | -0.0857 |
| RRIRMRPPRLPRPRPRPNIPPRP | -0.207 |
| RRIRLRPPRLPRPRPRPWSDPRP | -0.188 |

| Sequence | shrunken log2 fold change |
| --- | --- |
| RRIRGRPPRLPRPRPRPAILPRP | -0.0316 |
| RRIRNRPPRLPRPRPRPSLRPRP | -0.00371 |
| RRIRVRPPRLPRPRPRPTNLPRP | 0.0684 |
| RRIRLRPPRLPRPRPRPWMFPRP | -0.108 |
| RRIRYRPPRLPRPRPRPASYPRP | -0.156 |
| RRIRMRPPRLPRPRPRPSCQPRP | 0.166 |
| RRIRRRPPRLPRPRPRPGIKPRP | -0.291 |
| RRIRMRPPRLPRPRPRPKDIPRP | -0.0934 |
| RRIRHRPPRLPRPRPRPYHTPRP | -0.132 |
| RRIRHRPPRLPRPRPRPWMNPRP | -0.0538 |
| RRIRHRPPRLPRPRPRPIMYPRP | -0.169 |
| RRIRWRPPRLPRPRPRPICAPRP | 0.291 |
| RRIRWRPPRLPRPRPRPMFIPRP | -0.378 |
| RRIRIRPPRLPRPRPRPCGPPRP | -0.138 |
| RRIRERPPRLPRPRPRPWVPPRP | 0.0883 |
| RRIRGRPPRLPRPRPRPKDMPRP | 0.213 |
| RRIRKRPPRLPRPRPRPAFKPRP | -0.0132 |
| RRIRWRPPRLPRPRPRPLTLPRP | -0.00729 |
| RRIRDRPPRLPRPRPRPGMNPRP | 0.164 |
| RRIRDRPPRLPRPRPRPNQLPRP | -0.0966 |

| Sequence | shrunken log2 fold change |
| --- | --- |
| RRIRPRPPRLPRPRPRPQPNPRP | 0.185 |
| RRIRQRPPRLPRPRPRPRYGPRP | -0.407 |
| RRIRKRPPRLPRPRPRPLFAPRP | 0.594 |
| RRIRTRPPRLPRPRPRPAFWPRP | 0.26 |
| RRIRYRPPRLPRPRPRPNITPRP | -1.03 |
| RRIRSRPPRLPRPRPRPLWIPRP | -0.497 |
| RRIRARPPRLPRPRPRPADVPRP | 0.118 |
| RRIRNRPPRLPRPRPRPTMRPRP | 0.746 |
| RRIRERPPRLPRPRPRPNVTPRP | -0.199 |
| RRIRMRPPRLPRPRPRPLNIPRP | -0.163 |
| RRIRLRPPRLPRPRPRPNPMPRP | 0.0102 |
| RRIRRRPPRLPRPRPRPRMWPRP | 0.431 |
| RRIRYRPPRLPRPRPRPTLMPRP | -0.301 |
| RRIRTRPPRLPRPRPRPNMIPRP | -0.277 |
| RRIRWRPPRLPRPRPRPVHAPRP | 0.109 |
| RRIRERPPRLPRPRPRPHDRPRP | -0.00992 |
| RRIRCRPPRLPRPRPRPWQMPRP | -0.0748 |
| RRIRKRPPRLPRPRPRPLDYPRP | -0.202 |
| RRIRPRPPRLPRPRPRPDLCPRP | -0.0739 |
| RRIRRRPPRLPRPRPRPIKAPRP | 0.0673 |

Reference: the supplement of paper PMC9112550, “Optimization of the antimicrobial peptide Bac7 by deep mutational scanning” (BMC Biology, 2022)
